The values that follow come from article PMC6908968 (Cell, 2019).

Where a chain is given by its changes, count along the chain named.

T1: thermolysin-cleaved EBOV GP on Jurkat-GP cells (cleaved GP) (Zaire ebolavirus, Makona (GP1 core …, strain))
T1 chain 1: not shown
T1 chain 2: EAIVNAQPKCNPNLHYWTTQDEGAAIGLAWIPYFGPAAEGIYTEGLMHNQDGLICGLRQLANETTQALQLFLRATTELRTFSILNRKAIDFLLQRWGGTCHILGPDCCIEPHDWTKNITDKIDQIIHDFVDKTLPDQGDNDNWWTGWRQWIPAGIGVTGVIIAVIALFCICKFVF

B1: 5.6.c3295 (antibody, V domains shown)
VH: EVQLVESGGDLVQPGGSLRLSCAASGFTVNANYLGWVRQTPGKGLEWVSLIYSGSGSTYYADSVKGRFTLSRDSSKNTLFLHMNSLRPEDTAVYYCARAGGCGGDCYSYYFDYWGRGTLVTVSS
VL: DIQMTQSPSTLSASVGDRVTITCRASQSISRWLAWYQQKPGKAPKLLIYRASSLQNGVPSRFSGSGSGTEFTLTISGLQPDDFGIYYCQEYSSRYTFGQGTQLEIK
B2: 5.6.c4013 (antibody, V domains shown)
VH: B1 VH with C102V, G103V, G104V, D105T, C106A, Y107I, S108R, Y109T, Y110T
VL: B1 VL
B3: 5.6.c3250 (antibody, V domains shown)
VH: QVQLVESGGGLVKPGGSLRLSCAASGFTFSDYDMSWIRQAPGKGLEWISYISSSGTTIYDADSVKGRFTISRDNAKNSLSLQVNSLRAEDTAVYYCARNVEQIVGATLDYWGQGTLVTVSS
VL: EIVLTQSPATLSLSPGERATLSCRASQSISSFLAWYQQKLGQAPRLLIFDASNRATGIPARFSGSGSGTDFTLTISSLEPEDFAVYYCHHWTFGQGTKVEIK
B4: 5.6.c3397 (antibody, V domains shown)
VH: QVQLQESGPGLVKPSETLSLTCTVSGGSISTYYWSWIRQTPGKGLECIGYINYFGSTNYNPSLKSRVTISIDTSKNQFSLKLSSVTAADTAVYYCARHYGVGTYSGGWFDPWGQGTLVTVSS
VL: DIQMTQSPSSLSASVGDRVTVTCRASQRINSFLNWYQQKPGKAPKLLIYAASSLQSGVPSRFSGTGSGTDFTLTISSLQPEDFATYYCQQSYSSPRTFGQGTKVEIR
B5: 5.6.c3507 (antibody, V domains shown)
VH: EVQLVESGGGVVQPGGSLRLSCAASGFTFDDYGMHWVRQAPGKGLEWVSFISGDGYSTYYGDSVKGRFTISRDKSKNSLYLQMNSLRTEDTAFYYCAKDGGSTLTTLLYNWFDSWGQGTLVTVSS
VL: DIQMTQSPSSLSASVGDRVTITCRASQSINMYLNWYQQKPGKAPKVLIYGASSLQSGVPSRFSGSGSGTDFTLTISSLQPEDFATYYCQQSYSIPVTFGPGTKVDIK
B6: 5.6.c3567 (antibody, V domains shown)
VH: EVQLVESGGVVVQPGGSLRLSCAASGFTFDDYTMHWVRQVPGKGPEWVSLITWDGAHTYYADSVKGRFTISRDNSKNSLYLQMNSLRTEDTALYFCARDTAGGAFWSGYPDYWGQGTLVTVSS
VL: B5 VL with N30S, M31S, N34I, A43V, Y92H, V96Y, P100Q, V104L, D105E
B7: 5.6.c3412 (antibody, V domains shown)
VH: QIQLVESGGGVVQPVRSLRLTCAASGFTFSQYGMHWVRQAPGKGLEWVAVISYDGTQKYYSDSVKGRFTISRDNAKNTLSLQMNGLRAEDTAVYYCAKGFLERNFDLWSGSYSDSGWRGPYYGMDFWGQGTTVIVSS
VL: QTVVTQEPSFSVSPGGTVTITCALSSGSVSASLYPSWYQQTPGQAPRTLIYSTNTRSSGVPDRFSGSILGNKAALTITGAQADDESDYYCVLFMSSGIYVFGTGTKVTVL
B8: 5.6.c3479 (antibody, V domains shown)
VH: QVHLVESGGGLVKPGGSLRLSCSVSGFAFSDYYMTWIRQAPGKGLEWVSYISGDGGSIYYADSVKGRFTISRDNAKKSLYLQLNSLRADDTAVYYCARDRCDRDQLLCYYYYGMDVWGQGTTVTVSS
VL: QSVLTQPPSVSAAPGQKVTISCSGSSSNIGNNYVSWYQQLPGTAPKLLIYDNNKRPSGIPDRFSGSKSGTSATLDITGLQTGDEADYYCGTWDNSLIAGVFGGGTKLTVL
B9: 5.6.c4395 (antibody, V domains shown)
VH: EVQLVESGGGLVQPGGSLRLSCAASGFTFSTYEMNWVRQAPGKGLEWIAFIDDGGSTINYADSVKGRFTVSRDNAKNSLYLQMNSLRADDTAIYYCARVMTTSFYYYGVDVWGQGTTVTVSS
VL: DIQMTQSPSIVSASVGDRVTITCRASQGVSYWLAWYQQKPGKAPKLLIYAASSLQSGVPSRFSGSGSGTDFTLTISSLQPEDFATYYCQQAHSFPWTFGQGTKVEMK
B10: 5.6.c4471 (antibody, V domains shown)
VH: QIQLVQSGTEVKKPGASVKVSCTASGYTFNNYAITWVRQAPGQGLEWMGWINPYNGDTTYAQKLQGRITMTTGRSTSTAYMDLRSLTSGDTAVYYCARGGAVTDLYFSYVMDVWGQGTTVSVSS
VL: B9 VL with I10S, G28D, Y36F, K45E, Y49H, S76N, A91S, M106I
B11: 5.6.c3508 (antibody, V domains shown)
VH: QVQLEQSGAEVKKPGASVKVSCQAAGYTFTSYGISWVRQAPGQGLEWMGWISADNGNTKYAQNLQARVTMTTDTSTSTAYMEVRRLRSDDTAVYYCARDSGDLSSLLYYGMDVWGQGTTVTVSS
VL: DIQLTQSPSFLSASVGDRVTITCRASQGISSYLAWYQQKPGKAPKLLIDAASTLQSGVPSRISGSRSGTEYTLTISSLQPEDFATYYCQQLNNFPFTFGPGTKVDIK
B12: 5.6.c3557 (antibody, V domains shown)
VH: QVQLVESGGGVVQPGRSLRLSCAASGFSITNYAMHWVRQAPGRGLEWVALISYDGINQYYADSVKGRFTFSRDNSKNTLYLQMNSLRLDDTAVYYCARDPASPSDIFQDAFDIWGQGTTVIVSS
VL: DIQMTQSPSSLSASVGDRVTITCRASQDISGWLAWYQQKPEKAPRSLIYATSSLQSGVPSRFSGSGSGTDFTLTISSLQPEDFATYYCQQYHSYPLTFGGGTKIQIK
B13: 5.6.c4011 (antibody, V domains shown)
VH: QVQLQESGPGVVKPSETLSLTCTVSGASMTGYYWSWIRQPPGKGLEWIGYIFYSGSTNYNPSLKSRATISVDTSKKQFSLKLSSVTAADTAVYYCARSVVVIENDAFDIWGQGTMVTVSS
VL: DIQMTQSPSSLSASVGDRVTITCRASQSTTSYLNWYQQKPGKAPKLLIFAASTLQSGVPSRFSGSGSGTDFTLTISSLQPEDFATYYCQQSYSAPYTFGQGTKLEIK
B14: 5.6.c4392 (antibody, V domains shown)
VH: QVQLVESGGGVVQPGRSLRLSCAASGFFFRNYGIHWVRQAPGKGLEWVAIISYDESKKYYADSVKGRFTISRDNSKNTLYLQMNSLRAEDTAVYYCAKAHPHSRWFFDSWGQGTLVTVSS
VL: NFVLTQPHSVSDSPGKTVTISCTRSSGSIATDYVQWYQQRPGSAPTLVIYEDNQRPSGVPNRFSGSIDSSSNSASLTISGLETEDEADYYCQSYDPTNLVFGGGTKLTVL
B15: 5.6.c4515 (antibody, V domains shown)
VH: QVQLVESGGDVVQPGRSLRLSCAASGFIFSTYGMHWVRQTPGKGLEWVAVLYYDGRNGYYADSVKGRFTISRDNSKNTLYLQMNSLRAEDTAVYYCARDGCSSTDCLLYYYAMDVWGQGTTVTVSS
VL: QSALTQPPSASGSPGQSVTISCTGTSSDVGAYNYVSWYQQHPGKGPKLMIYEVNQRPSGVPGRFSGSKSGNTASLTVSGLQTEDEADYFCSSYAGSNTVVFGGGTKLTVL
B16: 5.6.c3362 (antibody, V domains shown)
VH: QLQLQQSGPGLVKPSETLSLTCNVSGGSISSSSTYSWGWIRQPPGKGLEWIGNIYYSGSTYYNPSLKSRVTISVDTSKNQFSLKLSSVTAADTAVYYCARSFRGPTGAFYYYSYAMDVWGRGTTVTVSS
VL: SSELTQDPAVSVALGQTVRITCQGDSLRTYYASWYQQKPGQAPVLVIYGKKNRPSGIPDRFSGSSSGNTASLTITGAQAEDEADYYCNSQDSSGDLVLFGGGTKVTAL
B17: 5.6.c3360 (antibody, V domains shown)
VH: EVQVVESGGGLVKPGGSLRLSCAASGFSFSIYSMNWVRQAPGKGLEWVSSITGSSSYTNYAGSVKGRFTISRDNAKNSLYLQMNSLRADDTAVYYCARDGAVDTDIYYYGMDVWGQGTTVTVSS
VL: DIQMTQSPSFVSASIGDRVTITCRASQDISSWLAWYQQKPGKAPTLLIYATSTLQSGVPSRFSGSGSGTDFTLTISSLQPEDFATYYCLQAHSFPRTFGQGTQLEIK
B18: 5.6.c3835 (antibody, V domains shown)
VH: QIQLVQSGAEVKKPGASVKVSCRASGYTFASSGISWVRQAPGQGLEWMGWINVYNGDTNSAHKLQGRVTMTTDTSTSTAYMELRSLRSDDTAVYYCTRDSFCAGSNSCYLWAGYYYYAMDVWGQGTTVTVSP
VL: EIVMTQSPATLSVSPGERATLSCRASQSLSSNLAWYQQKPGQAPRLLIYRASTRATGVPARFSGSGSGTEFTLIISNLQSEDFAVYYCQQFQNWPRTFGQGTKVEIK

The target of one test is T1, thermolysin-cleaved EBOV GP on ….
On to B1, for which the binding result is “binds”.

Consider B2, for which the binding result is “binds”.

On to B3, for which the binding result is reported as “binds”.

Take B4: the binding result is reported as “binds”.

On to B5, for which the binding result was “binds”.

In the case of B6, the binding result is “binds”.

For the molecule B7, the binding result is reported as “binds”.

For B8, the binding result is “binds”.

For the molecule B9, the binding result is on record as “binds”.

Take B10: the binding result was “binds”.

Turning to B11, the binding result is listed as “binds”.

As for B12, the binding result was “binds”.

Consider B13, for which the binding result is reported as “binds”.

For the molecule B14, the binding result is recorded as “binds”.

As to B15, the binding result is given as “binds”.

B16: the binding result was “binds”.

In the case of B17, the binding result is “binds”.

For the molecule B18, the binding result is “binds”.

In a further test the target is EBOV GP ectodomain residues 1-636 (GPec) (Zaire ebolavirus, strain  …, UniProt Q05320).
As for B1, the binding result is “binds”.

Regarding B2, the binding result is reported as “binds”.

As to B3, the binding result was “binds”.

Turning to B4, the binding result is given as “binds”.

Regarding B5, the binding result is “binds”.

Regarding B6, the binding result is “binds”.

For B7, the binding result is “binds”.

As for B8, the binding result is listed as “binds”.

Take B9: the binding result is on record as “binds”.

For B10, the binding result is listed as “binds”.

With B11, the binding result is recorded as “binds”.

On to B12, for which the binding result was “binds”.

In the case of B13, the binding result is “binds”.

For B14, the binding result is “binds”.

B15: the binding result is “binds”.

Consider B16, for which the binding result is reported as “binds”.

Consider B17, for which the binding result was “binds”.

Consider B18, for which the binding result is on record as “binds”.
